Source: patent publication US20250074972A1, “ANTIBODIES AND METHODS FOR GENERATING THE SAME” (priority 2021, published 2025)

Legend:
[1] = system: A. fumigatus AF293/FGSC1100 hyphae; experiment: Whole cell binding ELISA, A. fumigatus hyphae; parameters: species or system Aspergillus fumigatus; conditions: starting concentration 100 μg/ml scAb
Experimental: C. albicans Utr2 shares certain degree of sequence similarity with S. cerevisiae Utr2, S. cerevisiae Crh1 and an Aspergillus fumigatus allergen Aspf9, with highly conserved putative glycosyl hydrolase domains (Alberti-Segui et al., 2004). The cross-reactivity of selected Utr2 scAbs to A. fumigatus was tested by performing a whole cell binding ELISA using C. albicans SC5314 and A. fumigatus AF293/FGSC1100 strains. To induce hyphal formation, wells of a MaxiSorp flat-bottom 96 well plate was coated with approximately 10^6 overnight grown cells diluted in DMEM or RPMI-1640 modified medium containing 10% heat-inactivated foetal calf serum (FCS) and incubated at 37° C. for 2-20 h. Cells were washed three times in PBS+0.05% Tween, blocked with 1.5% bovine serum albumin (BSA), and incubated at room temperature for 1 h. Cells were washed as before and a starting concentration of 100 μg/ml scAb in 1% blocking buffer was added in duplicate in doubling dilutions and incubated at room temperature for 1.5 h. After washing, cells were incubated with anti-human C kappa peroxidase antibody as described previously. Following incubation for 45 min at room temperature, wells were washed and stained with tetramethylbenzidine (TMB) and read at an absorbance of 450 nm in a VersaMax microplate reader (Molecular Devices, USA).

[2] = system: C. albicans WT and Utr2 overexpression strains; experiment: Immunofluorescence staining of C. albicans using Utr2 scAbs; format: cell-based, Candida albicans; conditions: scAb 10 μg/ml (1D2 repeated at 50 μg/ml)
Experimental: Overnight grown C. albicans WT and Utr2 overexpression strains were diluted and left to adhere on a poly-L-lysine glass slide for 1 h. To induce hyphal growth the cells were grown in DMEM medium containing 10% heat-inactivated foetal calf serum (FCS) and incubated at 37° C. for 2 h. Cells were washed three times in Dulbecco's phosphate-buffered saline (DPBS) and fixed with 4% paraformaldehyde at room temperature for 15 minutes. After washing, cells were blocked with 1.5% BSA and incubated for 1 h. Cells were washed as before and stained with Utr2 scAbs at 10 μg/ml for 1 h at room temperature. After washing, cells were stained with FITC-labelled anti-human kappa light chain antibody (1 μg/ml) and incubated at room temperature for 1 h. Cells were washed again and stained with 25 μg/ml of Calcofluor white (CFW) to illuminate chitin-containing structures. Mounting medium was added with a coverslip before images were taken using an UltraVIEW® Vox spinning disk confocal microscope (Perkin Elmer, Waltham, Mass, USA). Calcofluor white stain was viewed at lower brightness (×1) and FITC stain was viewed at higher brightness (×8). Calcofluor white stained the chitin rich cell wall as well as septa of both C. albicans strains.
The immunofluorescence staining was repeated for 1D2 scAb with higher concentration of scAb (50 μg/ml) and FITC-labelled anti-human kappa light chain antibody (5 μg/ml). […]

[3] = system: C. albicans WT strain SC5314; experiment: Candida albicans growth inhibition assay; format: cell-based; conditions: OD 405 nm
Experimental: The antifungal activity of Utr2 scAbs was assessed by measuring the growth of fungal cells in microtitre plates. A growth assay was carried out with C. albicans WT strain SC5314 and using caspofungin as a positive control. A starting concentration of 100 μg/ml was prepared for the test scAbs (B5, C8, D3, 1H3, 1B1 and 1D2) and caspofungin and these were double diluted in a 96 well microtitre plate in designated wells. The wells were inoculated using 50 μl 2×10^6 cells/ml diluted in RPMI-1640 medium and incubated for 24 h and 48 h at 37° C. Cell growth was determined by measuring optical density at 405 nm in a spectrophotometer.

[4] = after 24 h, top concentration of 100 μg/ml

Molecule	cross-reactivity to A. fumigatus hyphae [1]	immunofluorescence staining [2]	growth inhibition [3, 4] [%]	growth inhibition ([3]; after 48 h incubation)
1B1: Utr2 antibody; SEQ ID NO: 10 (protein, 1B1 Amino Acid Sequence) scFv: QGQLVQSGGGVVQPGRSLRLSCAASGFTFSSYAMHWVRQAPGKGLEWVAVISYDGSNKYYADSVKGRFTISRDNSKNTLYLQMNSLRAEDTAVYYCARIAHPRTRGGKEVEYFQHWGQGTLVTVSSLEGGGGSGGGGSGGGASDIVMTQTPLSSPVTLGQPASISCRSSQSLVYSDGNTYLNWFQQRPGQSPRRLIYKVSNRDSGVPDRFSGSGSGTDFTLKISRVEAEDVGVYYCMQGTHWPPSFGQGTKLEIKR	cross-reactive	minimal staining		
B5: Utr2 antibody; SEQ ID NO: 12 (protein, B5 Amino Acid Sequence) scFv: QVQLVESGGGVVQPGRSLRLSCAASGFTFSSYGMHWVRQAPGKGLEWVAVISYDGSNKYYADSVKGRFTISRDNSKNTLYLQMNSLKTEDTAQYYCVRVRRSGMARGLIDYWGQGTLVTVSSLEGGGGSGGGGSGGGASSYELTQDPAVSVALGQTVRITCQGDILRSYYASWYQQKPGQAPVLVIYGKNNRPSGIPDRFSGSSSGNTASLTITGAQAEDEADYYCNSRDSSGNHKVFGGGTKVTVLG			40	No further reduction
1D2: Utr2 antibody; SEQ ID NO: 24 (protein, 1D2 Amino Acid Sequence) scFv: QVQLVQSGAEVKKPGASVKVSCKASGYSFTNYDIYWVRQATGQGLEWVGFINPKTGKTGYAQKFQGRVTMSRDTSITTAYMELNSLTSEDTAVYYCASISGYWGQGTLVTVSSLEGGGGSGGGGSGGGASDIVMTQSPLSLPVTLGQPASISCRSSQSLVYSDGNTYLNWFQQRPGQSPRRLIYKVSNRDSGVPDRFSGSGSGTDFTLKISRVEAEDAGLYYCMQGSHWPPTFGQGTKVEIKR	cross-reactive	specifically stained the hyphal tips and bud surface		
D3: Utr2 antibody; SEQ ID NO: 26 (protein, D3 Amino Acid Sequence) scFv: QMQLVQSGAEVKKPGESLKISCKGSGYSFTSYWIGWVRQMPGKGLEWMGIIYPGDSDTRYSPSFQGQVTISADKSISTAYLQWSSLKASDTAMYYCARLKTGDQLPDIWGQGTMVTVSSLEGGGGSGGGGSGGGASDIVMTQTPLSLSVTPGQPASISCKSSQSLLHSDGKTYLYWYLQKPGQPPQLLIYEVSNRFSGVPDRFSGSGSGTDFTLKISRVEAEDVGVYYCMQTIQLPATFGGGTKLEIRR				approximately 40%
C8: Utr2 antibody; SEQ ID NO: 18 (protein, C8 Amino Acid Sequence) scFv: EVQLVQSGAEVKKPGSSVKVSCKASGGTFSSYAISWVRQAPGQGLEWMGIINPSGGSTSYAQKFQGRVTMTRDTSTSTVYMELSSLRSEDTAVYYCARGTKGKDYYYMDVWGKGTLVTVSSLEGGGGSGGGGSGGGASDIQMTQSPSSLSASVGDRVTITCRASQSISTYLNWYQQKPGTAPNLLIYGASNLQSGVPSRFSGSGSGTDFTLTISSLQPEDFATYYCQQSYSTPLTFGGGTKVDIKR			40	No further reduction
1C2: Utr2 antibody; SEQ ID NO: 14 (protein, 1C2 Amino Acid Sequence) scFv: QVQLVQSGAEVKKPGASVKVSCKASGYTFTSYAMHWVRQAPGQRLEWMGWINAGNGNTKYSQKFQGRVTITRDTSASTAYMELSSLRSEDTAVYYCARGGAAAGYYMDVWGKGTLVTVSSLEGGGGSGGGGSGGGASNFMLTQPHSVSESPGKTVTISCTRSSGSIASNYVQWYQQRPGSSPTTVIYDDNQRPSGVPDRFSASIDSSSNSASLTISGLKTEDEADYYCQSYDSSIVVFGGGTKLTVLG	cross-reactive			
